The test deals with T1, bovine serum albumin (bovine, UniProt P02769 25-607).
T1 construct: also called BSA
In words: SELDI-TOF ProteinChip, protein covalently bound to PS-1 chip, SP added. How it is done: HGFIN-SP interaction was studied by pre-treating the PS1 chips with 50% acetonitrile for 3 min. After this, the chips were incubated for 45 min with the following: 2.5 μg HGFIN (experimental sample), anti-Id2, an unrelated IgG regarding its ability to complex with SP and was therefore treated as a negative control, rabbit anti-SP (positive control) or 20 ng fibronectin, fragment III-C (positive control). The arrays were blocked for 25 min with 1M ethanolamine and washed with PBS+0.5% Triton X (2×) and a final PBS wash step. After this the chips were washed with PBS+Triton-x, PBS, rinsed with 5 mM Hepes and then dried. CHCA was applied and the non-covalently bound SP was detected with the SELDI-Time of Flight Mass spectrometer as described for the profiling studies for HGFIN.
Fibronectin has been reported to bind SP. Therefore, this property of fibronectin was used as a positive control for SP interaction on the SELDI system. […] Similar results were shown with another positive control: rabbit anti-SP (covalently bound) and SP (FIG. 4C, lower chromatogram). No peak was detected in two negative controls, which consisted of bovine serum albumin or an unrelated antibody (anti-Id2) covalently bound to the surface of PS-1.

T1 sequence (P02769 25-607 limits assumed): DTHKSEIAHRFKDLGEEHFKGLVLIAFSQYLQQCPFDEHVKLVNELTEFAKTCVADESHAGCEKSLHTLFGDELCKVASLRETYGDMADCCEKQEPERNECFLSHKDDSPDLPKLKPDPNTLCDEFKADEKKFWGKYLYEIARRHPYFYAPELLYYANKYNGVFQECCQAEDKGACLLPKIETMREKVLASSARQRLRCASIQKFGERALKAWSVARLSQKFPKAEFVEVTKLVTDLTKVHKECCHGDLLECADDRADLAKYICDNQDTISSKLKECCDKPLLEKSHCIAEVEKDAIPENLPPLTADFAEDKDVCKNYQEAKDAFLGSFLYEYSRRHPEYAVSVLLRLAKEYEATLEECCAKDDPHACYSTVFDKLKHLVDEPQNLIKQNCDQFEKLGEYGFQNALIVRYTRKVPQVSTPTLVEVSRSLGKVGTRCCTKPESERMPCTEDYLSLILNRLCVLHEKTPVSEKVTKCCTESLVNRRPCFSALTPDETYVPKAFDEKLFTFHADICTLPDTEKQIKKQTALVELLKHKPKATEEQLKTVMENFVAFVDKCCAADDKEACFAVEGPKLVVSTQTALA

B1: Substance P (peptide, UniProt P20366 58-68, looked up)
peptide: RPKPQQFFGLM
notes: Substance P is an 11-residue peptide cut from it; 2 ug was added to the chips; also called SP
Take B1: the binding result was “no binding”.
